Assay results taken from patent publication US20220220200A1.

Key:
[1] = target: CD19 on the cell surface (native CD19 antigen) (human) (UniProt P15391); experiment: flow cytometry, phage clone on JVM-2 cells (CD19-positive)
[2] = target: CD19 on the cell surface (native CD19 antigen) (human) (UniProt P15391); experiment: flow cytometry, phage clone on K562-CD19 cells (CD19-positive)
[3] = target: CD19 on the cell surface (native CD19 antigen) (human) (UniProt P15391); experiment: flow cytometry, phage clone on Raji cells (CD19-positive)

CD19 on the cell surface (native CD19 antigen) (human), sequence (P15391 20-556): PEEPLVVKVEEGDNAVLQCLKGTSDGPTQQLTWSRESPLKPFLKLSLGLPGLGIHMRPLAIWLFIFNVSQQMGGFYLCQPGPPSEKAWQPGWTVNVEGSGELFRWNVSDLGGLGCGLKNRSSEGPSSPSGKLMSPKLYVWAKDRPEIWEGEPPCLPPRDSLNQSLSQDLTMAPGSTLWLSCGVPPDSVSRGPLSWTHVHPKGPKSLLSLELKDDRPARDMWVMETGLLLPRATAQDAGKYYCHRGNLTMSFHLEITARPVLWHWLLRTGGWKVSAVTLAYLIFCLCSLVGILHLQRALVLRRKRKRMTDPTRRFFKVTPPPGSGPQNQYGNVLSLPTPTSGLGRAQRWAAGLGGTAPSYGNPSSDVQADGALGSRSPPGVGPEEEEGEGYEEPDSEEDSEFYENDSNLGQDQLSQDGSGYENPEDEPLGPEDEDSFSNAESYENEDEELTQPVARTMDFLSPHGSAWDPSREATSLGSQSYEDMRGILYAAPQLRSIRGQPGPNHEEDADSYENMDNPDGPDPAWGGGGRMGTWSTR

FMC-63 (humanized mouse anti-human CD19 phage antibody clone) (scFv)
MFI [1]: 22.4 | MFI [2]: 38.1 | MFI [3]: 55.8
